From patent US20250066759

Test system: Bs-CspB-100V80 fusion (ssRNA purification reagent, Isotag) (Bacillus subtilis)
Settings: percent of spiked dsRNA eluted; greater than 4-log dsRNA removal; dsRNA ELISA

Which binding does the source give for “dsRNA matching the sequence and size of the eGFP ssRNA” here?
Its binding is under 4%.
